In general, stoichiometry N refers to the number of molecules, sites or subunits per partner or assembly.

Targets include LreuBSH; LaciBSHa; LingBSH.
Experiment in all cases: crystal structure; crystals grown at 20 °C by sitting drop vapour diffusion (LgasBSHa with taurine and CDCA: hanging drop); data at 100 K; molecular replacement with PDB 2HEZ; homo-tetramer in the crystal structure
Data set [1] deals with LgasBSHb (Lactobacillus gasseri).
The target in data set [2] is LjohBSHc (johnsonii (cluster johnsonii_1, Lactobacillaceae)).
Data set [3] concerns the molecule itself.

In turn, “LgasBSHb (from UniProt A0A805Z5R7 1-316) (enzyme)” registered a stoichiometry N in data set [1] of 4. Take “LreuBSH (from UniProt A0A805Z5R7 1-316) (enzyme)”: in the data set with LreuBSH, the stoichiometry N amounted to 4.

Molecule “LaciBSHa (from UniProt A0A805Z5R7 1-316) (enzyme)” returned a stoichiometry N with LaciBSHa of 4. Regarding “LingBSH (from UniProt A0A805Z5R7 1-316) (enzyme)”, the stoichiometry N in the data set with LingBSH is 4. Take “LjohBSHc (from UniProt A0A805Z5R7 1-316) (enzyme)”: the stoichiometry N in data set [2] worked out at 4.

B1: LgasBSHa (enzyme, Lactobacillus gasseri, UniProt A0A805Z5R7 1-316, looked up)
chain: MCTGLRFTDDQGNLYFGRNLDVGQDYGEGVIITPRNYPLPYKFLDNTTTKKAVIGMGIVVDGYPSYFDCFNEDGLGIAGLNFPHFAKFSDGPIDGKINLASYEIMLWVTQNFTKVSDVKEALKNVNLVNEAINSSFAVAPLHWIISDKDEAIIVEVSKQYGMKVFDDKLGVLTNSPDFNWHLTNLGNYTGLDPHDATAQSWNGQKVAPWGVGTGSLGLPGDSIPADRFVKAAYLNVNYPTVKGEKANVAKFFNILKSVAMIKGSVVNKLGSDEYTVYTACYSAATKTYYCNFENDFELKTYKLDDETMNADKLITY
notes: bile salt hydrolase LgasBSHa (cluster gasseri_1), amplified from genomic DNA; selectivity loop GVG with V211 in its centre; catalytic cysteine at position 2; Crystallised with taurine and with taurine plus CDCA; also called taurine-preferring BSH; bile salt hydrolase; source: E. coli BL21-G, purified (HisTrap HP, Superdex 200)
Consider B1, for which the “stoichiometry N” value in data set [3] was found to be 4.

The values are drawn from paper PMC10066039, “Bile salt hydrolases shape the bile acid landscape and restrict Clostridioides difficile growth in the murine gut” (Nature Microbiology, 2023).
